In the nanobody polyreactivity screen of Harvey et al. (2022):

Experiment: yeast display, Sf9 membrane polyspecificity reagent, FACS + sequencing; frameworks hold sequencing errors
Method in brief: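 Using colony PCR, genes from sorted yeast display clones were amplified, then sequenced on MiSeq at 2 × 250 and filtered by CDR length. The clones had been stained with 10% biotinylated, detergent-solubilized Sf9 membrane reagent for 1 hour at 4 °C and sorted by FACS into low and high (top ~1%) gates on anti-HA and streptavidin fluorescence. Polyreactivity labels come from the gate of origin.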

Sequence	polyreactivity (PSR sort gate)
QVQLVESGGGLVQAGGSLRLSCAASGIIFLTNAMGWYRQAPGTVRELVAAITAIGGSTYYADSVKGRFTISRDNAKNTVYLQMNSLKPEDTAVYYCAADCSYVYYLYDYWGQGTQVTVSS	low polyreactivity
QVQLVESGGGLVQAGGSLRLSCAASGIIFNLYAMGWYRQAPGKERELVAAISWSGGSTYYADSVKGRFTISRDNAKNTVYLQMNSLKPEDTAVYYCATSFLYPYFDEDDYWGQGTQVTVSS	high polyreactivity
QVQLVESGGGLVQAGGSLRLSCAASGIIFNWYAMGWYRQAPGKERELVAAISGSGDITYYADSVKGRFTISRDNAKNTVYLQMNSLKPEDTAVYYCAADPWTYWEDYDYWGQGTQVTVSS	low polyreactivity
QVQLVESGGGLVQAGGSLRLSCAASGIIFNWYAMGWYRQAPGKERELVAGISTSGGSTYYADSVKGRFTISRDNAKNTVYLQMNSLKPEDTAVYYCAAGRRGAWQYGYYYWGQGTQVTVSS	high polyreactivity
QVQLVESGGGLVQAGGSLRLSCAASGIIFNYNAMGWYRQAPGKERELVATISSGDSTNYADSVKGRFTISRDNAKNTVYLQMNSLKPEDTAVYYCAAESPSVFDGYAQLYIILEDYWGQGTQVTVSS	low polyreactivity
QVQLVESGGGLVQAGGSLRLSCAASGIIFPGYTMGWSRQAPGPEREVVAAISSGGRTNYADSVKGRFTISRDNAKNTVYLQMNSLKPEDTAVYYCAATRVASLGSPMYYCGQGTQVTVSS	high polyreactivity
QVQLVESGGGLVQAGGSLRLSCAASGIIFPGYVMGWYRQAPGKERELVAAISYSGGRTYYADSVKGRFTISRDNAKNTVYLQMNSLIPEDTAVYYCAARKSYFTSTDRYYGYYYHQSNYLGQGTQVTVSS	high polyreactivity
QVQLVESGGGLVQAGGSLRLSCAASGIIFPRNAMGWYRQAPWKERELVAGISRSGGSTSYADSVKGRFTFSRDNAKNTVYLQMNSLKPEDTAVFYCASRGHPFKKSYGSWGQGTQVTVSS	high polyreactivity
QVQLVESGGGLVQAGGSLRLSCAASGIIFPRYVMGWYRQAPGKERELVAAINRSGGSTYYADSVKGRFTISRDYAKNTVYLQMNSLKPEDTAVYYCAALDVRSYRGGYWGQGTQVTVSS	high polyreactivity
QVQLVESGGGLVQAGGSLRLSCAASGIIFPSYVMGWYRQAPGKERELVARISARGGRTYYADSVKGRFTISRDNAKNTVYLQMNSLKPEDTAVYYCAARWGITTWYDYWGQGTQVTVSS	high polyreactivity
QVQLVESGGGLVQAGGSLRLSCAASGIIFPVYTKGWYRQAPGKERELVAAISTSGGRTYYADSVKGRFTISRDNAKNTVYLQMNSLKPEYTAVYYCAAKRYTRKAGYYYWGQGTQVTVSS	high polyreactivity
QVQLVESGGGLVQAGGSLRLSCAASGIIFPYNVMGWYRQAPGKERELVAAITRGAASTYYADSVKGRFTISRDNAKNTVYLQMNSLKPEDTAVYYCNADGTWRTYNYWGQGTQVTVSS	high polyreactivity
QVQLVESGGGLVQAGGSLRLSCAASGIIFQYYAMGWYRQAPGKERELVAAINSGTTTYYADSVKGRFTITRDNAKNTVYLQMNSLKPEDTAVYYWNKDWHSQDFSAYNSYDYWGQGTQVTVSS	low polyreactivity
QVQLVESGGGLVQAGGSLRLSCAASGIIFRFYAMGWYRQAPGKERELVAAIRTSGGSTYYADSVKGRFTISRDNAKNTVYLQMNSLKPEDTAGYYCAARFYNGWTKHNYWGQGTQVTVSS	high polyreactivity
QVQLVESGGGLVQAGGSLRLSCAASGIIFRFYSMGWYRKEPGKERELVAAITSSGGSTYYADSEKGRFTISRDNAKNTVYLQMNSLKPEDSAVYYCATSTGPYRGRFYYWGQGTQVTGSS	high polyreactivity
QVQLVESGGGLVQAGGSLRLSCAASGIIFRGNAMGWYRQAPGKERELVAAISRSGRTNYADSVKGRFTISRDNAKNTVYLQMNSLKPEDTAVYYCAVDKRYGRVVGRDYDYWGQGTQVTVSS	high polyreactivity
QVQLVESGGGLVQAGGSLRLSCAASGIIFRGNSMGWYRQAPGKERELVAAIRFSGGSTYYADSVKGRFTISRDYAKNTVYLQMNSLKPEDTAVYYFAATRRRYGSTTSEYYYWGQGTQVTVSS	high polyreactivity
